The source of these data is article PMC10786891, “Massively parallel profiling of RNA-targeting CRISPR-Cas13d”.

B1: target 1 insA 3' of 10,insC 3' of 1 (mixed)
RNA 1: CACCCGUGCAAAAAUGCAGGGGUCUAAAACUGAGCGGAUAACCUCUCUAUGG
RNA 2: GGGAAUGGAUCCACAUCUACGAAUUCGUACCAUAGAGAGGUUAAUCCGCUCACCCGAGAUCGGAAGAGCACACGU
B2: target 1 insU 3' of 17,insC 3' of 3 (mixed)
RNA 1: CACCCGUGCAAAAAUGCAGGGGUCUAAAACUGAGCGGAUAACCUCUCUAUGG
RNA 2: GGGAAUGGAUCCACAUCUACGAAUUCGUACCAUAGUAGAGGUUAUCCGCUCCACCGAGAUCGGAAGAGCACACGU
B3: target 1 insG 3' of 21,insA 3' of 13 (mixed)
RNA 1: CACCCGUGCAAAAAUGCAGGGGUCUAAAACUGAGCGGAUAACCUCUCUAUGG
RNA 2: GGGAAUGGAUCCACAUCUACGAAUUCGUACCGAUAGAGAGAGUUAUCCGCUCACCGAGAUCGGAAGAGCACACGU
B4: target 1 insU 3' of 14,insU 3' of 2 (mixed)
RNA 1: CACCCGUGCAAAAAUGCAGGGGUCUAAAACUGAGCGGAUAACCUCUCUAUGG
RNA 2: GGGAAUGGAUCCACAUCUACGAAUUCGUACCAUAGAGAUGGUUAUCCGCUCUACCGAGAUCGGAAGAGCACACGU
B5: target 1 insC 3' of 15,insG 3' of 8 (mixed)
RNA 1: CACCCGUGCAAAAAUGCAGGGGUCUAAAACUGAGCGGAUAACCUCUCUAUGG
RNA 2: GGGAAUGGAUCCACAUCUACGAAUUCGUACCAUAGAGCAGGUUAUGCCGCUCACCGAGAUCGGAAGAGCACACGU
B6: target 1 insG 3' of 9,insG 3' of 7 (mixed)
RNA 1: CACCCGUGCAAAAAUGCAGGGGUCUAAAACUGAGCGGAUAACCUCUCUAUGG
RNA 2: GGGAAUGGAUCCACAUCUACGAAUUCGUACCAUAGAGAGGUUAGUCGCGCUCACCGAGAUCGGAAGAGCACACGU
B7: target 1 insA 3' of 10,insC 3' of 10 (mixed)
RNA 1: CACCCGUGCAAAAAUGCAGGGGUCUAAAACUGAGCGGAUAACCUCUCUAUGG
RNA 2: GGGAAUGGAUCCACAUCUACGAAUUCGUACCAUAGAGAGGUUACAUCCGCUCACCGAGAUCGGAAGAGCACACGU
B8: target 1 insC 3' of 22,insC 3' of 8 (mixed)
RNA 1: CACCCGUGCAAAAAUGCAGGGGUCUAAAACUGAGCGGAUAACCUCUCUAUGG
RNA 2: GGGAAUGGAUCCACAUCUACGAAUUCGUACCCAUAGAGAGGUUAUCCCGCUCACCGAGAUCGGAAGAGCACACGU
B9: target 1 insA 3' of 10,insA 3' of 2 (mixed)
RNA 1: CACCCGUGCAAAAAUGCAGGGGUCUAAAACUGAGCGGAUAACCUCUCUAUGG
RNA 2: GGGAAUGGAUCCACAUCUACGAAUUCGUACCAUAGAGAGGUUAAUCCGCUCAACCGAGAUCGGAAGAGCACACGU
B10: target 1 A18U,C22U (mixed)
RNA 1: CACCCGUGCAAAAAUGCAGGGGUCUAAAACUGAGCGGAUAACCUCUCUAUGG
RNA 2: GGGAAUGGAUCCACAUCUACGAAUUCGUAUCAUUGAGAGGUUAUCCGCUCACCGAGAUCGGAAGAGCACACGU
B11: target 1 A9C,U11A (mixed)
RNA 1: CACCCGUGCAAAAAUGCAGGGGUCUAAAACUGAGCGGAUAACCUCUCUAUGG
RNA 2: GGGAAUGGAUCCACAUCUACGAAUUCGUACCAUAGAGAGGAUCUCCGCUCACCGAGAUCGGAAGAGCACACGU
B12: target 1 G12U,G13U (mixed)
RNA 1: CACCCGUGCAAAAAUGCAGGGGUCUAAAACUGAGCGGAUAACCUCUCUAUGG
RNA 2: GGGAAUGGAUCCACAUCUACGAAUUCGUACCAUAGAGAUUUUAUCCGCUCACCGAGAUCGGAAGAGCACACGU
B13: target 1 insC 3' of 22,insA 3' of 22 (mixed)
RNA 1: CACCCGUGCAAAAAUGCAGGGGUCUAAAACUGAGCGGAUAACCUCUCUAUGG
RNA 2: GGGAAUGGAUCCACAUCUACGAAUUCGUACCACAUAGAGAGGUUAUCCGCUCACCGAGAUCGGAAGAGCACACGU
B14: target 1 insG 3' of 16,insU 3' of 14 (mixed)
RNA 1: CACCCGUGCAAAAAUGCAGGGGUCUAAAACUGAGCGGAUAACCUCUCUAUGG
RNA 2: GGGAAUGGAUCCACAUCUACGAAUUCGUACCAUAGAGGAUGGUUAUCCGCUCACCGAGAUCGGAAGAGCACACGU
B15: target 1 insC 3' of 22,insU 3' of 17 (mixed)
RNA 1: CACCCGUGCAAAAAUGCAGGGGUCUAAAACUGAGCGGAUAACCUCUCUAUGG
RNA 2: GGGAAUGGAUCCACAUCUACGAAUUCGUACCCAUAGUAGAGGUUAUCCGCUCACCGAGAUCGGAAGAGCACACGU
B16: target 1 insA 3' of 13,insA 3' of 13 (mixed)
RNA 1: CACCCGUGCAAAAAUGCAGGGGUCUAAAACUGAGCGGAUAACCUCUCUAUGG
RNA 2: GGGAAUGGAUCCACAUCUACGAAUUCGUACCAUAGAGAGAAGUUAUCCGCUCACCGAGAUCGGAAGAGCACACGU
B17: target 1 insG 3' of 19,insG 3' of 19 (mixed)
RNA 1: CACCCGUGCAAAAAUGCAGGGGUCUAAAACUGAGCGGAUAACCUCUCUAUGG
RNA 2: GGGAAUGGAUCCACAUCUACGAAUUCGUACCAUGGAGAGAGGUUAUCCGCUCACCGAGAUCGGAAGAGCACACGU
B18: target 1 A1G,U11A (mixed)
RNA 1: CACCCGUGCAAAAAUGCAGGGGUCUAAAACUGAGCGGAUAACCUCUCUAUGG
RNA 2: GGGAAUGGAUCCACAUCUACGAAUUCGUACCAUAGAGAGGAUAUCCGCUCGCCGAGAUCGGAAGAGCACACGU
B19: target 1 C7G,A9C (mixed)
RNA 1: CACCCGUGCAAAAAUGCAGGGGUCUAAAACUGAGCGGAUAACCUCUCUAUGG
RNA 2: GGGAAUGGAUCCACAUCUACGAAUUCGUACCAUAGAGAGGUUCUGCGCUCACCGAGAUCGGAAGAGCACACGU
B20: target 1 C7G,U8C (mixed)
RNA 1: CACCCGUGCAAAAAUGCAGGGGUCUAAAACUGAGCGGAUAACCUCUCUAUGG
RNA 2: GGGAAUGGAUCCACAUCUACGAAUUCGUACCAUAGAGAGGUUACGCGCUCACCGAGAUCGGAAGAGCACACGU
B21: target 1 insU 3' of 13,insG 3' of 2 (mixed)
RNA 1: CACCCGUGCAAAAAUGCAGGGGUCUAAAACUGAGCGGAUAACCUCUCUAUGG
RNA 2: GGGAAUGGAUCCACAUCUACGAAUUCGUACCAUAGAGAGUGUUAUCCGCUCGACCGAGAUCGGAAGAGCACACGU
B22: target 1 C4A,U8A (mixed)
RNA 1: CACCCGUGCAAAAAUGCAGGGGUCUAAAACUGAGCGGAUAACCUCUCUAUGG
RNA 2: GGGAAUGGAUCCACAUCUACGAAUUCGUACCAUAGAGAGGUUAACCGAUCACCGAGAUCGGAAGAGCACACGU
B23: target 1 insC 3' of 19,insA 3' of 17 (mixed)
RNA 1: CACCCGUGCAAAAAUGCAGGGGUCUAAAACUGAGCGGAUAACCUCUCUAUGG
RNA 2: GGGAAUGGAUCCACAUCUACGAAUUCGUACCAUCAGAAGAGGUUAUCCGCUCACCGAGAUCGGAAGAGCACACGU
B24: target 1 insA 3' of 12,insA 3' of 5 (mixed)
RNA 1: CACCCGUGCAAAAAUGCAGGGGUCUAAAACUGAGCGGAUAACCUCUCUAUGG
RNA 2: GGGAAUGGAUCCACAUCUACGAAUUCGUACCAUAGAGAGGAUUAUCCGACUCACCGAGAUCGGAAGAGCACACGU
B25: target 1 U3G,U10C (mixed)
RNA 1: CACCCGUGCAAAAAUGCAGGGGUCUAAAACUGAGCGGAUAACCUCUCUAUGG
RNA 2: GGGAAUGGAUCCACAUCUACGAAUUCGUACCAUAGAGAGGUCAUCCGCGCACCGAGAUCGGAAGAGCACACGU
B26: target 1 insU 3' of 13,insC 3' of 9 (mixed)
RNA 1: CACCCGUGCAAAAAUGCAGGGGUCUAAAACUGAGCGGAUAACCUCUCUAUGG
RNA 2: GGGAAUGGAUCCACAUCUACGAAUUCGUACCAUAGAGAGUGUUACUCCGCUCACCGAGAUCGGAAGAGCACACGU
B27: target 1 A1C,U11A (mixed)
RNA 1: CACCCGUGCAAAAAUGCAGGGGUCUAAAACUGAGCGGAUAACCUCUCUAUGG
RNA 2: GGGAAUGGAUCCACAUCUACGAAUUCGUACCAUAGAGAGGAUAUCCGCUCCCCGAGAUCGGAAGAGCACACGU

The target of the series is T1, EsCas13d, nuclease-dead (Eubacterium siraeum, UniProt B0MS50, R295A;H300A;R849A;H854A).
T1 sequence: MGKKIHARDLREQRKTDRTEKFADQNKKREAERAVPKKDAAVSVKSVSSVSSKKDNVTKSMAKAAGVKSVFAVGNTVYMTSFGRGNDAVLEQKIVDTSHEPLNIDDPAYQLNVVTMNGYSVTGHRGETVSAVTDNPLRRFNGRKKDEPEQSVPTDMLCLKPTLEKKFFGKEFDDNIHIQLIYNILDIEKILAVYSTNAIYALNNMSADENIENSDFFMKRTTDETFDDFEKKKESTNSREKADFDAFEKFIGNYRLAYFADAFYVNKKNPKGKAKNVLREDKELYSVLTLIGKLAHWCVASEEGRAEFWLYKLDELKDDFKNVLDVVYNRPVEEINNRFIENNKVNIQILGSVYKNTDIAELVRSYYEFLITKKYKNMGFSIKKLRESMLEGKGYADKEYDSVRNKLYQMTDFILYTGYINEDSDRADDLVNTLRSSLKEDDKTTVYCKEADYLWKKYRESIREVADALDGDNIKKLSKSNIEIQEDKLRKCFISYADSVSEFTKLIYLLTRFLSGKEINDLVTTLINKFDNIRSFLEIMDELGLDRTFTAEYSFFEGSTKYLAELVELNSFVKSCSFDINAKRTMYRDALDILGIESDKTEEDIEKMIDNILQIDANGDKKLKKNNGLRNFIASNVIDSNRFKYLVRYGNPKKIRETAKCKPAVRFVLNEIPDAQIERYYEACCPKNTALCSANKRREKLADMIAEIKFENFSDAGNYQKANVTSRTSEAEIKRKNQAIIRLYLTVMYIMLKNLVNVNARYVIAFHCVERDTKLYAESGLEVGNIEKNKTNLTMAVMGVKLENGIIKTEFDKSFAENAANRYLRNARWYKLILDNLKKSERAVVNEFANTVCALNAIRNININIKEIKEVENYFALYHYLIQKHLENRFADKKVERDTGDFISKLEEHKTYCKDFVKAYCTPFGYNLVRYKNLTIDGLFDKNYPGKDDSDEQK
In words: crRNA (strand 1, pre-loaded); Mg2+; 40 mM Tris-HCl pH 7.5, 150 mM NaCl, 6 mM MgCl2, 1 mM DTT, 0.1% Tween-20, 0.2 mg/ml BSA; 25 C; 10 min per concentration, then washed. The note with it: tags: His6-TwinStrep-SUMO cleaved; N-terminal SNAP kept (SNAP-Surface 488); label: 3' end held by stalled T7 RNA polymerase.
In turn, B1 had a Kd of 12.6 ± 0.6 nM.

Turning to B2, the Kd amounted to 29 ± 5 nM.

B3 displayed a Kd of 44 ± 5 nM.

Consider B4, for which the Kd worked out at 57 ± 8 nM.

Consider B5, for which the Kd came out at 23.3 ± 2.2 nM.

B6 displayed a Kd of 10.7 ± 0.4 nM.

With B7, the Kd came to 12.9 ± 1.3 nM.

B8: the affinity, expressed as Kd, was 18 ± 1.8 nM.

As to B9, the Kd is 14 ± 0.8 nM.

Molecule B10 displayed a Kd of 74 ± 10 nM.

The molecule B11 had a dissociation constant (Kd) of 59 ± 13 nM.

Consider B12, for which binding was put at a Kd of 7.2 ± 0.5 nM.

B13 yielded an equilibrium dissociation constant (Kd) of 10 ± 0.9 nM.

With B14, the dissociation constant Kd stood at 25.4 ± 2.4 nM.

For the molecule B15, the Kd was determined as 25.2 ± 2.7 nM.

In the case of B16, the Kd was determined as 7.9 ± 0.4 nM.

For the molecule B17, the Kd was 56 ± 15 nM.

Turning to B18, the affinity, expressed as Kd, was 34 ± 4 nM.

Regarding B19, binding was put at a Kd of 9.26 ± 0.33 nM.

On to B20, for which binding was characterised by a dissociation constant (Kd) of 10.7 ± 0.4 nM.

As for B21, the Kd was found to be 21 ± 4 nM.

Molecule B22 had a Kd of 25.3 ± 2.1 nM.

B23 gave a Kd of 49 ± 7 nM.

In the case of B24, binding was put at a Kd of 17.4 ± 1.6 nM.

For the molecule B25, the Kd was 14 ± 0.6 nM.

Molecule B26 yielded a Kd of 18.8 ± 2.4 nM.

With B27, the Kd was 44 ± 10 nM.

The term Kd denotes the concentration at which binding is half-saturated. Higher therefore signals lower affinity.
